Experiment [1] concerns the target aryl hydrocarbon receptor nuclear translocator PAS-B E362R, conjugated with Alexa-Fluor 488. As to the kind of experiment: MST.
Experiment [2] has as its target aryl hydrocarbon receptor nuclear translocator PAS-B E362R. As to the kind of experiment: ITC. In general terms: ITC needs no label: the signal is the heat of the interaction.
The target of experiment [3] is aryl hydrocarbon receptor nuclear translocator PAS-B E362R, conjugated with Alexa-Fluor 488. Nature of the experiment: MST. This is another data set of the same source.
The target is the same in experiment [4]. As to the kind of experiment: MST. This is another data set of the same source.

pKd: −log10 of the molar value. Like-named read-outs stand apart in the source and are kept apart here.

For orientation: pKd means the negative decadic logarithm of the Kd, by convention in mol/L. Read a low pKd as a large Kd. For the substance HIF-2α PAS-B R247E (domain or fragment), the pKd in experiment [1] was 6.09; in experiment [2], 6.25; in experiment [3] it was 6.77; in experiment [4], 6.60. The substance also yielded a dH in experiment [2] of 4.4 kcal/mol.

Source of the values: article PMC4873313.
